We go through five molecules from patent US20240084003A1 (SIMCERE ZAIMING PHARMACEUTICAL, published 2024).

First the molecules themselves.
T1: human CD22, full length, on CHO-K1-human CD22 2C4 cells (human, UniProt P20273 20-847)
T1 construct: Full-length human CD22 (NCBI NP_001762.2) stably transfected into CHO-K1
T1 sequence: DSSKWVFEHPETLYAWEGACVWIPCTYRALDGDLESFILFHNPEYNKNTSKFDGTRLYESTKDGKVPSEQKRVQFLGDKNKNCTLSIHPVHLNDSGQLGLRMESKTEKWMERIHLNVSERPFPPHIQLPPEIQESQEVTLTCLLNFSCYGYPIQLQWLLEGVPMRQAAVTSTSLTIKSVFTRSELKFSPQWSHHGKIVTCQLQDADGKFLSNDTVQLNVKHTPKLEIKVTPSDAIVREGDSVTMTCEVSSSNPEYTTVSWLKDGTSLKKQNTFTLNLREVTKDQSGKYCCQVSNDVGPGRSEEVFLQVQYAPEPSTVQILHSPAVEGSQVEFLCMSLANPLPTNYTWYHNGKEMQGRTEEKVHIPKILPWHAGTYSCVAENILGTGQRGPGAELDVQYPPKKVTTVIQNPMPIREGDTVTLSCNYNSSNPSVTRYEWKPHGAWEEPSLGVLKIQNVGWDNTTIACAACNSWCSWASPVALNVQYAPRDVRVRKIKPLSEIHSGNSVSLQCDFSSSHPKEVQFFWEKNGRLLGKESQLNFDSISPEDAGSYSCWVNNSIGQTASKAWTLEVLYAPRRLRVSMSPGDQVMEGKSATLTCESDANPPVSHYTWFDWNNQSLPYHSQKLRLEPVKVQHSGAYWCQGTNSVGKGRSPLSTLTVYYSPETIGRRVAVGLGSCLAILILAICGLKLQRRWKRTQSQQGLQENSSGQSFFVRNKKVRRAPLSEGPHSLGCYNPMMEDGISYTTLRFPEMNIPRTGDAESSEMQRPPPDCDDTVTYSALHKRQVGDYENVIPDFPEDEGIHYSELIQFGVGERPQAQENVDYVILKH

T2: human CD22, endogenous on Raji cells (human, UniProt P20273 20-847)
T2 construct: whole, on cells; Endogenous protein of the Raji cell line
T2 sequence (looked up): T1 sequence

T3: murine CD22 protein (ACROBiosystems, SI2-M52Ha) (murine, UniProt P35329 22-708)
T3 construct: extracellular domain; also called murine CD22-ECD; murine CD22-ECD-His
T3 sequence (looked up): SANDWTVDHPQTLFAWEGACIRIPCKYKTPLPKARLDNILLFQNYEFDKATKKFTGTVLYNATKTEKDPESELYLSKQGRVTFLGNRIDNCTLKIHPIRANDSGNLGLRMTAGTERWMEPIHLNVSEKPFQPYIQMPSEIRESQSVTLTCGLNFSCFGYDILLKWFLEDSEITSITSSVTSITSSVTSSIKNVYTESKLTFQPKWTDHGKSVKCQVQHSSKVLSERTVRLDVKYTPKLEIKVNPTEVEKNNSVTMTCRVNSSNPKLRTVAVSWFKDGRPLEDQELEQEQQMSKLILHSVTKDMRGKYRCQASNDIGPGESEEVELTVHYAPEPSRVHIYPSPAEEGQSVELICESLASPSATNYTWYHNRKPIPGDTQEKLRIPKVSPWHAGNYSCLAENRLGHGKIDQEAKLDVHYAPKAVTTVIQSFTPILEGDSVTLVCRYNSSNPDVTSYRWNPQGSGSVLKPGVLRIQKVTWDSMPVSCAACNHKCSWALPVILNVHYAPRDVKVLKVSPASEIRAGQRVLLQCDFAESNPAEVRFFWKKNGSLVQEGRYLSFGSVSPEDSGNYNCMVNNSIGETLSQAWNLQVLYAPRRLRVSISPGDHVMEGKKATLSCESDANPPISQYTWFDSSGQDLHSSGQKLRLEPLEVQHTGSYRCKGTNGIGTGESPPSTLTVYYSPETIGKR

B1: F1.245.2 human-murine chimeric antibody (antibody, human IgG1, kappa, V domains shown)
VH: EVQLQQSGAELVKPGASVKLSCTGSGFNIKDYYIHWVKQRTEQGLEWMGRIDPEDGETEYAPKFQDEATITSDTSSNTAYLQLSSLTYEDTAVYYCAREAAGYFYRGSSYGYFDVWGTGTTVTVSS
VL: DFQMTQTTSFLSASLGDRVTISCSASQDISNYLNWYQQKPDGTVKLLIYYTSSLHSGVPSRFSGSGSGTDYSLTISNLEPEDIATYYCQQYSMLPYTFGGGTKLEMER
notes: Chimeric, human IgG1 / kappa
B2: F1.60.9 human-murine chimeric antibody (antibody, human IgG1, kappa, V domains shown)
VH: QVQLKESGPGLVAPSQSLSITCTVSGLSLNNYGVSWVRQPPGKGLEWLGVIWGDGSTNYHSALISRLSISKDNSKSQVFLKLNSLHTDDTATYYCAINWGDYWGQGTTLIVSS
VL: DIKMTQSPSSMNASLGERVTITCKASQDINSYLSWFQQKPGKSPKILIYRANRLIDGVPSRFSGSGSGQDYSLTISSLEYEDMGIYYCLQYGVFPLTFGAGTKLELKR
notes: Chimeric, human IgG1 / kappa
B3: F1.192.1 human-murine chimeric antibody (antibody, human IgG1, kappa, V domains shown)
VH: AVQLQQSGVELVRPGASVKLSCTGSDFNIKEDYIHWVKQRPEQGLEWIGWIDPENGDTEYASKFQGKATITADTSSNTAYLQLSSLTSEDTAVYYCATYGSLDYWGQGTTLTVSS
VL: DIKMTQSPSSMYAFLGERVTITCKASQGINSFLTWFQQKPGKSPKTLIYRANRLVDGVPSRFSGSGSGQDYSLTISSLEYEDVGIYYCLQYDEFPRTFGGGTKLEIKR
notes: Chimeric, human IgG1 / kappa
B4: F1.172.13 human-murine chimeric antibody (antibody, human IgG1, kappa, V domains shown)
VH: QVTLKESGPGILQSSQTLSLTCSFSGFSLSTSGMGVSWIRQPSGKGLEWLAHIYWDDDKRYNPSLKSRLTISKDTSRNQVFLKITSVDTADTATYYCARAPPPNWDEYYFDYWGQGTTLTVSS
VL: DIQMTQSPASLSASVGETVTITCRASGNIHNSLAWYQQKQGKSPQLLVHNAKTLADGVPSRFSGSGSGTQYSLKINSLQPEDFGSYYCQHFWSTPPFGGGTKLEIKR
notes: Chimeric, human IgG1 / kappa
B5: F1.200.11 human-murine chimeric antibody (antibody, human IgG1, kappa, V domains shown)
VH: QNQLVQSGPELKKPGETVKISCKASGYTFTTAGMQWVQKMPGKGFKWIGWINTLSGEPKYAEDFKGRFAFSLETSATTAYLQISNLKNEDTATYFCARAYYSNLYWYFDVWGTGTTVTVSS
VL: DIVMTQSQKFMSTTVGDRVTITCKASQNVVTAVAWYQQKPGQSPKVLIYSASNRYSGVPDRFTGSGSGTDFTLTISNMHSEDLANYFCHQYSSYPFTFGSGTKLEIKR
notes: Chimeric, human IgG1 / kappa

The target in one test is T1, human CD22, full length, on …. Kind of test: FACS, CHO-K1-human CD22 2C4 cells. An excerpt: (§1) The required cells were scale-up cultured in a T-75 cell culture flask to the logarithmic growth phase. For the adherent cell CHO-K1, the medium was aspirated, the cells were washed 2 times with PBS buffer, and then digested with trypsin. After the digestion was terminated, the cells were washed 2 times with PBS buffer. For suspension cell Raji, the medium supernatant was directly centrifuged and discarded, and the cell pellet was washed 2 times with PBS. After counting the cells in the previous step, the cell pellet was resuspended with [PBS+2% (w/w) BSA] blocking solution to 2×10⁶ cells/ml, and added to a 96-well FACS reaction plate at 50 μl/well, and then the chimeric antibody test sample was added at 50 μl/well, and incubated on ice for 2 hours. The mixture was centrifuged and washed 3 times with PBS buffer, Alexa Flour 488-labeled secondary antibody (purchased from Invitrogen, catalog number: A-11013) was added at 50 μl/well, and incubated on ice for 1 hour. The obtained mixture was centrifuged and washed 5 times with PBS, and FACS (FACS Canto™, purchased from BD Company) was used for detection and result analysis. Data analysis was performed by software (CellQuest) to obtain the mean fluorescence density (MFI)of the cells. And then software (GraphPad Prism8) was used for analysis, data fitting, and EC50 value calculation. […] The same method was used to detect the binding of the chimeric antibodies to endogenous CD22-negative cell MoLT4 cells (purchased from ATCC, CRL-1582) and CHO-K1 cells.
In general terms: Flow cytometry measures light scatter and fluorescence of single cells or particles in a stream.
With B1, a half-maximal effect (EC50) was put at 330 pM and the “Maximum mean fluorescence intensity” value was determined as 43300 MFI.
The corresponding values for B2 are 610 pM and 30100 MFI.
Regarding B3, a half-maximal response (EC50) required 810 pM and the “Maximum mean fluorescence intensity” value was determined as 27200 MFI.
For B4, in that order: 590 pM and 33800 MFI.
For B5, the response was half-maximal at 11200 pM (EC50) and the “Maximum mean fluorescence intensity” value came out at 23000 MFI.

The target of the next test is T2, human CD22, endogenous on Raji cells. Kind of test: FACS, Raji cells.
Text: as §1
Turning to B1, it took 70 pM to reach a half-maximal effect (EC50) and the “Maximum mean fluorescence intensity” value was found to be 29900 MFI.
Consider B2, for which the EC50 – broadly, the concentration giving half of the maximal effect – came out at 290 pM and the “Maximum mean fluorescence intensity” value is 25300 MFI.
For B3, the concentration for a half-maximal effect (EC50) was 370 pM and the “Maximum mean fluorescence intensity” value came out at 24400 MFI.
The corresponding values for B4 are 170 pM and 23800 MFI.
The corresponding values for B5 are 2410 pM and 20800 MFI.

Another test addresses T3, murine CD22 protein (ACROBiosystems, …). The test can be described thus: ELISA, coated murine CD22, 100 nM Ab. The method, then: (§2) In order to detect the binding activity of CD22 human-murine chimeric antibodies to CD22 protein, the purified human CD22-ECD-His protein obtained in Example 2 was diluted with PBS to a final concentration of 2 μg/mL, and then added to 96-well ELISA plate at 100 μl/well. The plate was sealed with plastic film and incubated overnight at 4° C., the plate was washed 2 times with PBS the next day, and then a blocking solution [PBS+2% (w/w) BSA] was added for blocking at room temperature for 2 hours. […] After incubation at 37° C. for 2 hours, the plate was washed 3 times with PBS. HRP (horseradish peroxidase)-labeled secondary antibody (purchased from Sigma, catalog number: A0170) was added, and incubated at 37° C. for 2 hours, and the plate was washed 5 times with PBS. TMB substrate was added at 50 μl/well, and incubated at room temperature for 30 minutes, then a stop solution (1.0 N HCl) was added at 50 μl/well.
(§3) In order to detect the species cross-binding activity of the chimeric antibodies, an ELISA plate was coated with commercial murine CD22 protein (ACROBiosystems, catalog number: SI2-M52Ha) and monkey CD22 protein (ACROBiosystems, catalog number: SI2-R52Ha), respectively, and the ELISA detection was performed according to the method in Example 5.1.
On the technique in general: An ELISA detects its analyte on a solid surface through an enzyme-linked reagent.
On to B1, for which the OD450 stood at 0.09 OD450.
Still for that read-out and setting: next, B2: 0.08 OD450; B3: 0.08 OD450.
The molecule B4 had an OD450 of 0.08 OD450.
The same measure, in the same setting: the value for B5 was 0.07 OD450.

The next test has the same target. Kind of test: ELISA, coated murine CD22, 0.001 nM Ab. As to the method: as §2, §3
With B1, the OD450 stood at 0.06 OD450.
With B2, the OD450 worked out at 0.05 OD450.
Still for that read-out and setting: the value for B3 was 0.06 OD450; that for B4 was 0.05 OD450; that for B5 was 0.05 OD450.

Another test shares this target. The test can be described thus: ELISA, coated murine CD22, 0.01 nM Ab. The method, then: as §2, §3
With B1, the OD450 was 0.06 OD450.
In turn, B2 gave an OD450 of 0.06 OD450.
Still for that read-out and setting: next, B3: 0.07 OD450; B4: 0.05 OD450.
As to B5, the OD450 was 0.05 OD450.

For a further test the target is unchanged. Kind of test: ELISA, coated murine CD22, 10 nM Ab. The method, then: as §2, §3
For the molecule B1, the OD450 stood at 0.07 OD450.
In the case of B2, the OD450 was 0.06 OD450.
B3 returned an OD450 of 0.08 OD450.
B4 displayed an OD450 of 0.06 OD450.
Still for that read-out and setting: next, B5: 0.06 OD450.

For the next test the target is unchanged. Kind of test: ELISA, coated murine CD22, 0.0001 nM Ab. The method, then:
as §2, §3
As to B1, the OD450 was found to be 0.07 OD450.
As for B2, the OD450 amounted to 0.06 OD450.
Still for that read-out and setting: the value for B3 was 0.07 OD450; that for B4 was 0.06 OD450.
For the molecule B5, the OD450 turned out to be 0.05 OD450.

Another test has the same target. The test can be described thus: ELISA, coated murine CD22, 0.1 nM Ab. As to the method:
as §2, §3
Take B1: the OD450 worked out at 0.06 OD450.
Regarding B2, the OD450 was 0.05 OD450.
Still for that read-out and setting: the value for B3 was 0.07 OD450; that for B4 was 0.05 OD450.
Same read-out and setting: the value for B5 was 0.05 OD450.

The next test has the same target. Kind of test: ELISA, coated murine CD22, 0.00001 nM Ab. The method, then: as §2, §3
The molecule B1 came in with an OD450 of 0.06 OD450.
The same measure, in the same setting: next, B2: 0.06 OD450; B3: 0.07 OD450.
On the same count and under the same terms, the value for B4 was 0.06 OD450; that for B5 was 0.06 OD450.
